Target: T1, myc-tagged MURF1 (muscle-specific ring finger protein 1), full length (human, UniProt Q969Q1-1 1-353)
T1 construct: MURF1 (muscle-specific ring finger protein 1), human, full-length cDNA from bp137 to bp1198 of GenBank NM_032588, printed as aa1-aa354; Cloned into myc-tagged pCMV-Tag3. bp137-bp1198 is 354 codons, which may count the stop codon; source: COS-7 cells, transfected, in lysate (cell line named only for the A168-170 experiment)
Test: co-IP; GFP-tagged TTN fragment co-transfected with myc-tagged MURF1 (COS-7 cells named for A168-170); IP with anti-myc antibody (Catch and Release v2.0 Reversible Immunoprecipitation System), Western blot with anti-GFP; densitometry normalised to the input amount of GFP-TTN, WT set to 1.00 AU
Settings: partners not purified

T1 sequence (Q969Q1 whole entry, the tested form may be a part): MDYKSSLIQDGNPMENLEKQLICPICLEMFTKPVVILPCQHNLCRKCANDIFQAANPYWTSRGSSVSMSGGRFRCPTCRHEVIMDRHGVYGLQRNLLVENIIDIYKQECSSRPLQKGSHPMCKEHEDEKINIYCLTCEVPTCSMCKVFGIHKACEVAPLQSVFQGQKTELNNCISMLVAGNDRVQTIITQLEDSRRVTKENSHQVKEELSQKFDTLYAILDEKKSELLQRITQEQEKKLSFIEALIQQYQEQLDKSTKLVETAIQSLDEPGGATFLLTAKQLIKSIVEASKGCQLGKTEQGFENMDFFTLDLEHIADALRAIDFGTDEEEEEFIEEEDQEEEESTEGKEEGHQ

B1: GFP-tagged S30186A-TTN-A160-161 (titin domains A160-161 with the HCM-associated mutation S30186A) (domain or fragment, human, UniProt Q8WZ42-11 30134-30326, looked up)
chain: PDYELDERYQEGIFVRQGGVIRLTIPIKGKPFPICKWTKEGQDISKRAMIATAETHTELVIKEADRGDSGTYDLVLENKCGKKAVYIKVRVIGSPNSPEGPLEYDDIQVRSVRVSWRPPADDGGADILGYILERREVPKAAWYTIDSRVRGTSLVVKGLKENVEYHFRVSAENQFGISKPLKSEEPVTPKTPL
notes: numbers count on: the protein encoded by GenBank NM_133378; Cloned into pEGFP-C1; the mutation was found in a family with HCM
- co-precipitated amount relative to WT TTN-A160-161 (1.00 AU): 3.11 AU

B2: GFP-tagged D30994N-TTN-A168 (titin Ig domain A168 with the HCM-associated mutation D30994N) (domain or fragment, human, UniProt Q8WZ42-11 30928-31021, looked up)
chain: PHFKEELRNLNVRYQSNATLVCKVTGHPKPIVKWYRQGKEIIADGLKYRIQEFKGGYHQLIIASVTNDDATVYQVRATNQGGSVSGTASLEVEV
notes: numbers count on: the protein encoded by GenBank NM_133378; Cloned into pEGFP-C1; the mutation was found in a family with HCM; also called D30994N mutant TTN-A168
- co-precipitated amount relative to WT TTN-A168 (1.00 AU): 3.06 AU

B3: GFP-tagged D30994N-TTN-A168-170 (titin domains A168-A170 with the HCM-associated mutation D30994N) (domain or fragment, human, UniProt Q8WZ42-11 30928-31228, looked up)
chain: PHFKEELRNLNVRYQSNATLVCKVTGHPKPIVKWYRQGKEIIADGLKYRIQEFKGGYHQLIIASVTNDDATVYQVRATNQGGSVSGTASLEVEVPAKIHLPKTLEGMGAVHALRGEVVSIKIPFSGKPDPVITWQKGQDLIDNNGHYQVIVTRSFTSLVFPNGVERKDAGFYVVCAKNRFGIDQKTVELDVADVPDPPRGVKVSDVSRDSVNLTWTEPASDGGSKITNYIVEKCATTAERWLRVGQARETRYTVINLFGKTSYQFRVIAENKFGLSKPSEPSEPTITKEDKTRAMNYDEEV
notes: numbers count on: the protein encoded by GenBank NM_133378; Cloned into pEGFP-C1; the mutation was found in a family with HCM; also called D30994N mutant TTN-A168-170; source: COS-7 cells, transfected, in lysate
- co-precipitated amount relative to WT TTN-A168-170 (1.00 AU): 1.58 AU

B4: GFP-tagged E29783V-TTN-A156 (titin Ig domain A156 with the equivalent of the medaka nsh mutation D23186V) (domain or fragment, human, UniProt Q8WZ42-11 29735-29829, looked up)
chain: LPTIDLSTMPQKTIHVPAGRPVELVIPIAGRPPPAASWFFAGSKLRESVRVTVETHTKVAKLTIRETTIRDTGEYTLELKNVTGTTSETIKVIIL
notes: numbers count on: the protein encoded by GenBank NM_133378; Cloned into pEGFP-C1; mutation made by primer-mediated mutagenesis; also called mutant-TTN-A156; nsh Ig domain
- co-precipitated amount relative to WT TTN-A156 (1.00 AU): 9.23 AU

B5: GFP-tagged WT-TTN-A169 (titin Ig domain A169) (domain or fragment, human, UniProt Q8WZ42-11 31022-31119, looked up)
chain: PAKIHLPKTLEGMGAVHALRGEVVSIKIPFSGKPDPVITWQKGQDLIDNNGHYQVIVTRSFTSLVFPNGVERKDAGFYVVCAKNRFGIDQKTVELDVA
notes: numbers count on: the protein encoded by GenBank NM_133378; Cloned into pEGFP-C1; also called A169 domain
- co-precipitated amount relative to WT TTN-A168 (1.00 AU): 6.69 AU

— article PMC6899042, “Perturbation of the titin/MURF1 signaling complex is associated with hypertrophic cardiomyopathy in a fish model and in human patients” (Disease Models & Mechanisms, 2019)
